The Immune Epitope Database (IEDB)
Blank lines part the entries; values can stand above or below the sequence they belong to.

Tests used:
[1] = target: HLA-A*02:03; assay: IEDB peptide-MHC binding, purified MHC/competitive/radioactivity; filed as Kd, often an IC50 or EC50 that approximates it; ≥ and ≤ were set here for values at or beyond the usual limits of such assays
[2] = target: HLA-A*02:01; assay: as above
[3] = target: HLA-A*02:17; assay: as above
[4] = target: HLA-A*68:02; assay: as above
[5] = target: HLA-A*02:02; assay: as above
[6] = target: HLA-A*02:06; assay: as above
[7] = target: HLA-B*53:01; assay: as above
[8] = target: HLA-B*51:01; assay: as above
[9] = target: HLA-B*07:02; assay: as above
[10] = target: HLA-A*03:01; assay: as above
[11] = target: HLA-A*11:01; assay: as above
[12] = target: HLA-B*54:01; assay: as above
[13] = target: HLA-B*08:01; assay: as above; conditions: source organism: Hepacivirus hominis
[14] = target: HLA-A*31:01; assay: as above
[15] = target: HLA-A*33:01; assay: as above
[16] = target: HLA-A*01:01; assay: as above
[17] = target: HLA-B*35:01; assay: as above
[18] = target: HLA-A*68:01; assay: as above
[19] = target: HLA-A*30:01; assay: as above; conditions: source organism: Lassa virus Josiah
[20] = target: HLA-A*29:02; assay: as above; conditions: source organism: Lassa virus Josiah
[21] = target: HLA-A*30:02; assay: as above; conditions: source organism: Lassa virus Josiah
[22] = target: HLA-A*26:01; assay: as above; conditions: source organism: Lassa virus Josiah
[23] = target: HLA-A*32:01; assay: as above; conditions: source organism: Lassa virus Josiah
[24] = target: HLA-B*07:02; assay: IEDB peptide-MHC binding, purified MHC/direct/fluorescence; filed as Kd, often an IC50 or EC50 that approximates it; ≥ and ≤ were set here for values at or beyond the usual limits of such assays; conditions: source organism: Corynebacterium diphtheriae
[25] = target: HLA-A*03:01; assay: as above; conditions: source organism: Corynebacterium diphtheriae
[26] = target: HLA-A*11:01; assay: as above; conditions: source organism: Corynebacterium diphtheriae
[27] = target: HLA-A*29:02; assay: as above; conditions: source organism: Corynebacterium diphtheriae
[28] = target: HLA-B*46:01; assay: as above; conditions: source organism: Corynebacterium diphtheriae
[29] = target: HLA-B*08:01; assay: as above; conditions: source organism: Corynebacterium diphtheriae
[30] = target: HLA-B*27:05; assay: as above; conditions: source organism: Corynebacterium diphtheriae
[31] = target: HLA-A*02:01; assay: as above; conditions: source organism: Corynebacterium diphtheriae
[32] = target: HLA-A*31:01; assay: as above; conditions: source organism: Corynebacterium diphtheriae
[33] = target: HLA-A*01:01; assay: as above; conditions: source organism: Corynebacterium diphtheriae
[34] = target: HLA-B*48:01; assay: as above; conditions: source organism: Corynebacterium diphtheriae
[35] = target: HLA-B*44:02; assay: as above; conditions: source organism: Corynebacterium diphtheriae
[36] = target: HLA-B*58:01; assay: as above; conditions: source organism: Corynebacterium diphtheriae
[37] = target: HLA-B*57:01; assay: as above; conditions: source organism: Corynebacterium diphtheriae
[38] = source organism: Dengue virus 3 Sri Lanka/1266/2000
[39] = source organism: Trypanosoma cruzi
[40] = source organism: Dengue virus 4 Philippines/H241/1956
[41] = source organism: Hepacivirus hominis
[42] = source organism: Dengue virus 1 Brazil/97-11/1997
[43] = source organism: Dengue virus 1 Singapore/S275/1990
[44] = source organism: Dengue virus 2 Jamaica/1409/1983
[45] = source organism: Vaccinia virus WR
[46] = source organism: Lassa virus Josiah

Sequence: CLMMILPAAL
Kd [1, 38]: 39 nM | Kd [2, 38]: 15.4 nM | Kd [3, 38]: 170 nM

Kd ([4]; source organism: Homo sapiens): 13500 nM
Sequence: DLYEEEMREL

Sequence: FLHKRFTLV
Kd [5, 39]: 0.256 nM | Kd [6, 39]: 1.37 nM | Kd [1, 39]: 0.116 nM | Kd [2, 39]: 0.614 nM | Kd [4, 39]: 1310 nM

Sequence: FLMVLLIPEP
Kd [2, 40]: 31.4 nM | Kd [3, 40]: ≥ 44700 nM

Kd ([4]; source organism: Homo sapiens): ≥ 60000 nM
Sequence: GMFRTVGQL

Sequence: HSKRKCDEL
Kd [5, 41]: ≥ 43400 nM | Kd [7, 41]: ≥ 30100 nM | Kd [8, 41]: ≥ 46500 nM | Kd [9, 41]: ≥ 59800 nM | Kd [6, 41]: 1150 nM | Kd [10, 41]: ≥ 78000 nM | Kd [11, 41]: ≥ 77900 nM | Kd [12, 41]: ≥ 36100 nM | Kd [1, 41]: 12400 nM | Kd [13]: ≥ 77600 nM | Kd [2, 41]: ≥ 33900 nM | Kd [14, 41]: ≥ 77900 nM | Kd [15, 41]: ≥ 77700 nM | Kd [16, 41]: ≥ 59800 nM | Kd [4, 41]: ≥ 69800 nM | Kd [17, 41]: ≥ 77400 nM | Kd [18, 41]: ≥ 77700 nM

Sequence: IIFILLMLV
Kd [6, 42]: 1170 nM | Kd [1, 42]: 217 nM | Kd [2, 43]: 43.7 nM | Kd [3, 43]: 328 nM

Sequence: ILIGVIITWI
Kd [2, 44]: 91.5 nM | Kd [3, 44]: 17600 nM

Sequence: IVLFQRFLR
Kd [5, 45]: ≥ 54200 nM | Kd [7, 45]: ≥ 78200 nM | Kd [8, 45]: ≥ 77500 nM | Kd [9, 45]: ≥ 77500 nM | Kd [6, 45]: ≥ 47700 nM | Kd [10, 45]: 242 nM | Kd [11, 45]: 13.4 nM | Kd [12, 45]: ≥ 78100 nM | Kd [1, 45]: ≥ 48100 nM | Kd [2, 45]: ≥ 78100 nM | Kd [14, 45]: 0.185 nM | Kd [15, 45]: 2.38 nM | Kd [4, 45]: ≥ 51900 nM | Kd [17, 45]: ≥ 21900 nM | Kd [18, 45]: 1.24 nM

Sequence: LAIPPTAGV
Kd ([4]; source organism: Dengue virus 3 Martinique/1243/1999): 3.16 nM

Sequence: LISIFLHLV
Kd [5, 46]: 11.1 nM | Kd [6, 46]: 80.4 nM | Kd [19]: 1170 nM | Kd [20]: 11800 nM | Kd [1, 46]: 20.8 nM | Kd [2, 46]: 47.2 nM | Kd [16, 46]: 1910 nM | Kd [4, 46]: 65.2 nM | Kd [21]: 9090 nM | Kd [22]: 10300 nM | Kd [23]: 6700 nM

Sequence: LLGLWGFAAL
Kd [5, 39]: 28.2 nM | Kd [6, 39]: 466 nM | Kd [1, 39]: 36 nM | Kd [2, 39]: 222 nM | Kd [4, 39]: ≥ 125000 nM

Sequence: LLILCVTQV
Kd [1, 44]: 7.56 nM | Kd [2, 44]: 27.2 nM | Kd [3, 44]: 5970 nM

Sequence: LMMILPAALA
Kd [1, 38]: 98.8 nM | Kd [2, 38]: 11 nM | Kd [3, 38]: 1840 nM

Sequence: MVSILASSL
Kd [9, 44]: 1010 nM | Kd [4, 44]: 134 nM

Sequence: QVFGTAYGV
Kd [6, 42]: 7.26 nM | Kd [4, 42]: 0.95 nM

Sequence: TLIASLVMLL
Kd [1, 40]: 28.6 nM | Kd [2, 40]: 49.4 nM | Kd [3, 40]: 57.9 nM

Sequence: TVAANEMGL
Kd [4, 42]: 66.8 nM

Kd [24]: ≥ 20000 nM | Kd [25]: ≥ 20000 nM | Kd [26]: ≥ 20000 nM | Kd [27]: ≥ 20000 nM | Kd [28]: ≥ 20000 nM | Kd [29]: 7000 nM | Kd [30]: ≥ 20000 nM | Kd [31]: ≥ 20000 nM | Kd [32]: ≥ 20000 nM | Kd [33]: ≥ 20000 nM | Kd [34]: ≥ 20000 nM | Kd [35]: ≥ 20000 nM | Kd [36]: ≥ 20000 nM | Kd [37]: ≥ 20000 nM
Sequence: VERRLVKVL

Sequence: VLWEGGHDL
Kd [2, 40]: 14.3 nM | Kd [3, 40]: 453 nM

Sequence: WMTTEDMLAV
Kd [6, 44]: 25.1 nM | Kd [1, 44]: 20.4 nM | Kd [2, 44]: 82.4 nM | Kd [3, 44]: 2510 nM

Sequence: YLALLAAFKV
Kd [6, 44]: 9.62 nM | Kd [1, 44]: 15 nM | Kd [2, 44]: 1.62 nM | Kd [3, 44]: 62.3 nM

Sequence: YVSAIAQAKA
Kd [4, 42]: 22 nM
